Reference: US20200157212A1 (Pfizer, published 2020)
Substitutions are numbered along the chain they refer to.

T1: Human ROBO2 overexpressed on HEK293 cells (human, UniProt Q9HCK4 22-1378)
T1 construct: also called ROBO2 cells; native ROBO2
T1 sequence: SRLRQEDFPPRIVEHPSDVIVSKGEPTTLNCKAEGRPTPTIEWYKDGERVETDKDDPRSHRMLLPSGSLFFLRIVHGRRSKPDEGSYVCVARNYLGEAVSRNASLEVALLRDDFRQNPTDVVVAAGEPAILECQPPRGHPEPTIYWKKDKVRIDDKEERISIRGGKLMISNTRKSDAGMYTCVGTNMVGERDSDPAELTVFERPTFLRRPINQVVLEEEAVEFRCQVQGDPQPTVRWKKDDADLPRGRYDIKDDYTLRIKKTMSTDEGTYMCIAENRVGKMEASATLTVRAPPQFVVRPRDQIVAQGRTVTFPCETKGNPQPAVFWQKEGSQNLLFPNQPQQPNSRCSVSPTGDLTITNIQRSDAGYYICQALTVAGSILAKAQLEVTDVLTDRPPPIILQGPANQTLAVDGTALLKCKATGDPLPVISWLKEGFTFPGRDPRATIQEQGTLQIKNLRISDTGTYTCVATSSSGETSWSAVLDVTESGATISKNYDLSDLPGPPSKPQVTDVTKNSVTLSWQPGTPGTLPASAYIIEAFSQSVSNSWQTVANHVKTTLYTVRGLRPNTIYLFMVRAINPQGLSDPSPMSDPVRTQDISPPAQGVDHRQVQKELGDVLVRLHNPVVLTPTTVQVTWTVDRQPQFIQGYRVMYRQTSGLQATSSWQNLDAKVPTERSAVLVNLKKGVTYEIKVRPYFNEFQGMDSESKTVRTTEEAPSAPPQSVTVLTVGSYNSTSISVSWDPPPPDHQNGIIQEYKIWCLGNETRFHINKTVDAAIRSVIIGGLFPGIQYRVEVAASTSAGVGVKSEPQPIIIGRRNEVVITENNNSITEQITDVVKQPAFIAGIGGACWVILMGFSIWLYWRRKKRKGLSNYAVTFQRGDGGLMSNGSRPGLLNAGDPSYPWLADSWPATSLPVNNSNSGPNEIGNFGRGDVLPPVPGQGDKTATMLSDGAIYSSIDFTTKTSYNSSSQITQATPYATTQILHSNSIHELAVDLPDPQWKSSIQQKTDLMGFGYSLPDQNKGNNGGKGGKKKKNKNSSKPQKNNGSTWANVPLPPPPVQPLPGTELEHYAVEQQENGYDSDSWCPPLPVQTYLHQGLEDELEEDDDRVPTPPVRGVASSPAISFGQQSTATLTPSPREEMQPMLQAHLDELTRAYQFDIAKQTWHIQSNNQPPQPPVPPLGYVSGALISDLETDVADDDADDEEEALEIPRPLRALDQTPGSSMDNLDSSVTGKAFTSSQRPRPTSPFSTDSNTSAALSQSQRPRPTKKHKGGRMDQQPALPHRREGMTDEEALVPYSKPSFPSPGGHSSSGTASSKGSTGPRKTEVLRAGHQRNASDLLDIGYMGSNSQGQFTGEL

T2: Terbium (Tb) labeled-SNAP tagged ROBO2 expressed on HEK293 cells (Homo sapiens (Human), UniProt Q9HCK4 22-1378, terbium label on the SNAP tag)
T2 construct: also called Tb-labeled ROBO2 cells; ROBO2 expressing cells; not shown: SNAP tag
T2 sequence: T1 sequence

B1: Abcs55 (antibody, human IgG1, kappa, V domains shown)
VH: EVQLVQSGAEVKKPGASVKVSCKASGYTFTGYYMHWVRQAPGQGLEWMGWINPKDGDTEFPQKFQGRVTMTRDTSITTAYMDLSRLRSDDTAVYYCARESGDDAFDIWGQGTMVTVSS
VL: DIVMTQSPSSLSASVGDRVTITCRASQSISSYLNWYQQKPGKAPKLLIYAASSLQYGVPSRFSGSGSGTDFTLTISSLQPEDFATYYCQQSYSTSFGGGTKVEIKR
notes: chain-shuffled IgG
B2: CTIR2-14 (antibody, human IgG1, kappa, V domains shown)
VH: B1 VH with T30R, Y33A, N52D, K54R, D55T, D57L, E59K
VL: B1 VL with S28K, Y92L, S93E, T94L, S95G
notes: CDR-shuffled IgG
B3: CTIR2-16 (antibody, human IgG1, kappa, V domains shown)
VH: B1 VH with T30R, Y33A, N52D, K54R, D55T, D57L, E59K
VL: B1 VL with S28K, Y92V, S93G, T94L, S95F
notes: CDR-shuffled IgG
B4: Abcs20 (antibody, human IgG1, kappa, V domains shown)
VH: B1 VH with D55N
VL: B1 VL with Y56S, Y92V, S93G, T94L
notes: chain-shuffled IgG
B5: CTIR2-15 (antibody, human IgG1, kappa, V domains shown)
VH: B1 VH with T30R, Y33A, N52D, K54R, D55T, D57L, E59K
VL: B1 VL with S28K, Y92V, S93G, T94L
notes: CDR-shuffled IgG
B6: Abcs25 (antibody, human IgG1, kappa, V domains shown)
VH: B1 VH
VL: B1 VL with Y56S, Y92V, S93G, T94L
notes: chain-shuffled IgG
B7: Abcs35 (antibody, human IgG1, kappa)
heavy: EVQLVQSGAEVKKPGASVKVSCKASGYTFTGYYMHWVRQAPGQGLEWMGWINPKNGDTEFPQKFQGRVTMTRDTSITTAYMDLSRLRSDDTAVYYCARESGDDAFDIWGQGTMVTVSSASTKGPSVFPLAPSSKSTSGGTAALGCLVKDYFPEPVTVSWNSGALTSGVHTFPAVLQSSGLYSLSSVVTVPSSSLGTQTYICNVNHKPSNTKVDKKVEPKSCDKTHTCPPCPAPEAAGAPSVFLFPPKPKDTLMISRTPEVTCVVVDVSHEDPEVKFNWYVDGVEVHNAKTKPREEQYNSTYRVVSVLTVLHQDWLNGKEYKCKVSNKALPAPIEKTISKAKGQPREPQVYTLPPSREEMTKNQVSLTCLVKGFYPSDIAVEWESNGQPENNYKTTPPVLDSDGSFFLYSKLTVDKSRWQQGNVFSCSVMHEALHNHYTQKSLSLSPGK
light: DIVMTQSPSSLSASVGDRVTITCRASQSISSYLNWYQQKPGKAPKLLIYAASSLQSGVPSRFSGSGSGTDFTLTISSLQPEDFATYYCQQSVGLFFGGGTKVEIKRTVAAPSVFIFPPSDEQLKSGTASVVCLLNNFYPREAKVQWKVDNALQSGNSQESVTEQDSKDSTYSLSSTLTLSKADYEKHKVYACEVTHQGLSSPVTKSFNRGEC
notes: fully human IgG1; VH of Ab96 with VL of Ab123
B8: Abcs40 (antibody, human IgG1, kappa, V domains shown)
VH: B1 VH
VL: B1 VL with Y56S, Y92V, S93G, T94L, S95F
notes: chain-shuffled IgG
B9: 93H2 (antibody, human IgG1, kappa, V domains shown)
VH: B1 VH with K54N, D55S, D57A, E59N
VL: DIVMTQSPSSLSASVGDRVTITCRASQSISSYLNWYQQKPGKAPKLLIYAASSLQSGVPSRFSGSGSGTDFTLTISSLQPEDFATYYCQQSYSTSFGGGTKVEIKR
notes: also called parental 93H2; 93H2 mAb

Target: T3, Human ROBO1 RSK mutant overexpressed on HEK293 cells (human, UniProt Q9Y6N7 26-1651)
T3 construct: K137R and R139K already in the entry; also called ROBO1-RSK cells
Assay: flow cytometry, Geo MFI ROBO1-RSK/ROBO2-KSR HEK293 cells, 2.5 µg/ml

T3 sequence (Q9Y6N7 other isoform, or with tags, fused parts or gaps mutant limits assumed): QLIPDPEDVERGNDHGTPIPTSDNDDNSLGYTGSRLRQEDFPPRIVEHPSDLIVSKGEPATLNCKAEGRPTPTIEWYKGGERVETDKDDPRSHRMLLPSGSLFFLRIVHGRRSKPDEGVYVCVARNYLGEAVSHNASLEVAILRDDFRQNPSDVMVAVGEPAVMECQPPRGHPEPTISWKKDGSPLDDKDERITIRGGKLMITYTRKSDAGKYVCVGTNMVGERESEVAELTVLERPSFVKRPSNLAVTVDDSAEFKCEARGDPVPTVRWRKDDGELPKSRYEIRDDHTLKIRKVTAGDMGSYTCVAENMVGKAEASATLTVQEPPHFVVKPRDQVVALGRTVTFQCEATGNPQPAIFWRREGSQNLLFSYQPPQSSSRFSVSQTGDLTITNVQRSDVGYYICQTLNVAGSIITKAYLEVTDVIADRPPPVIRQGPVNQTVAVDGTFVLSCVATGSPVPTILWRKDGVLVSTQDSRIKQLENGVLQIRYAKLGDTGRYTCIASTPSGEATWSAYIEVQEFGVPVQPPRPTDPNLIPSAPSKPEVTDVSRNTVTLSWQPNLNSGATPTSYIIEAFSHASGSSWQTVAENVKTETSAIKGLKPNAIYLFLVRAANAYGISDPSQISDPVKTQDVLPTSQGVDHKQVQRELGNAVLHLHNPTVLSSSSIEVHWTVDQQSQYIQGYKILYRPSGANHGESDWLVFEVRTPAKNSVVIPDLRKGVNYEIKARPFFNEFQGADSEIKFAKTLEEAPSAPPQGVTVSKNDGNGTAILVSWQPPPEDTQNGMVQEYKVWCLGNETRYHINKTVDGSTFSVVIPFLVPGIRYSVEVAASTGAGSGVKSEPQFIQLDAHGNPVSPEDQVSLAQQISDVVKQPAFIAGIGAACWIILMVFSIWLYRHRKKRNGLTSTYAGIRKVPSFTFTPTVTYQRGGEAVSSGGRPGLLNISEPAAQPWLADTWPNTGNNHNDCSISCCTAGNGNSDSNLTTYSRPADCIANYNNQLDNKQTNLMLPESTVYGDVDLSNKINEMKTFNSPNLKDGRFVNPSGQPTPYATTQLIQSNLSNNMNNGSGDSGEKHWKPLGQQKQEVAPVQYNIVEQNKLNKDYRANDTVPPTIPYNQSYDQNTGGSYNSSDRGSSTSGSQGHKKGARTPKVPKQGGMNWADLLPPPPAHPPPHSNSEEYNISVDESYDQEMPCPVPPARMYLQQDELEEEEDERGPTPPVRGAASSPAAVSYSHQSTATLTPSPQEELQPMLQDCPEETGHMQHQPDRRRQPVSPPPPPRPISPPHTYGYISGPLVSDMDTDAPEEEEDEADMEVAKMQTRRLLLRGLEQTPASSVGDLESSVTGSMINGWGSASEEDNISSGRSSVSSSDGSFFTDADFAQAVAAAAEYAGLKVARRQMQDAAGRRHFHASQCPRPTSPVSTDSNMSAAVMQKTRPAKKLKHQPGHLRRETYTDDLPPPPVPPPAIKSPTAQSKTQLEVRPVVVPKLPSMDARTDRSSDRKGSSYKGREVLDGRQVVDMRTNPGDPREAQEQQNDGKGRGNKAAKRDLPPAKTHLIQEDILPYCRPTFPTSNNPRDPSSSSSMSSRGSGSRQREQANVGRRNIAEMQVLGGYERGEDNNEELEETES

Row | Fold Selectivity for RSK/KSR [fold] | Binder
1 | 1.5 | B1
2 | > 100 | B2
3 | 66.5 | B3
4 | 7 | B4
5 | > 100 | B5
6 | 8.1 | B6
7 | 9.3 | B8

Row | Binder | Fold Selectivity for RSK/KSR [fold]
8 | B7 | 6.6

Target: T1, Human ROBO2 overexpressed on HEK293 …
Assay: flow cytometry, Geo MFI ROBO2/ROBO1 HEK293 cells, 2.5 µg/ml
Protocol: Binding of the antibodies was detected using a secondary fluorochrome conjugated anti-human IgG F(ab′)₂ antibody and samples were analyzed on a Fortessa cytometer (BD Biosciences). The fold ROBO2 selectivity was calculated as the geometric mean fluorescence intensity (Geo MFI) with ROBO2 cells/Geo MFI with ROBO1 cells. A fold change higher than 3 was considered to be ROBO2 specific (Table 2, Fold Selectivity). Some affinity matured clones had increased ROBO1 reactivity, for example Abcs 55, CTI-R2-10 and CTIR2-13.
HTRF assays were run with 5 nM d2-labeled SLIT2-N and antibodies were added at 1 nM. […] Antibodies derived from chain (Abcs series) or CDR shuffling (CTIR-2 series) were evaluated in 11-point, 5-fold dilution series with a top concentration of 1500 nM, N.T. = not tested; ^cFold selectivity was calculated as Geometric Mean Fluorescent Intensity (Geo MFI) of ROBO2/Geo MFI of ROBO1 binding. […] Outcomes: results are listed in order of assays listed in the table (left to right), I.A. = Improved Affinity

Row | Fold Selectivity for ROBO2/ROBO1 [fold] | Binder
9 | 1.5 | B1
10 | 23.9 | B2
11 | 6.2 | B3
12 | 5.2 | B4
13 | 12.1 | B5
14 | 3.3 | B6
15 | 4.8 | B8

Row | Binder | Fold Selectivity for ROBO2/ROBO1 [fold]
16 | B7 | 4.8

Target: T2, Terbium (Tb) labeled-SNAP tagged ROBO2 …
Assay: HTRF competition, competitor d2-SLIT2-N, ROBO2 HEK293 cells
Summary of the method: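 HEK293 cells expressing Tb-labeled SNAP-ROBO2 were incubated 1 hour with 5 nM d2-SLIT2-N plus antibody, read as the 665/620 nm HTRF ratio. Controls were no antibody (maximal) and cells alone (minimal). Screening used 1 nM antibody; IC₅₀ came from 11-point, 5-fold dilutions starting at 1500 nM.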

Row | IC50 [nM] | Binder
17 | 4.22 | B9
18 | 0.057 | B1
19 | 0.037 | B2
20 | 0.056 | B3
21 | 0.04 | B4
22 | 0.05 | B5
23 | 0.042 | B6
24 | 0.048 | B8

Row | Binder | IC50 [nM]
25 | B7 | 0.041
